In article PMC6293278:

Molecular target: Taxol-stabilized microtubules (polymerized purified tubulin) (UniProt P02550)
Experiment: Taxol-stabilized microtubule co-sedimentation assay
Conditions: 3:1 MT:MAP1S LC ratio; MAP1S LC pre-incubated with CDKL5 (WT according to the lane labels of panel E; the key of panel F prints CDKL5 KD); n = 3 technical …; parent: est. 13; read off a plot

“Strep(II)-MAP1S LC WT (microtubule-associated protein 1S light chain) (from UniProt P0C5W1) S786A; S812A” gave an other: Soluble MAP1S LC (%) of 4.2%.
